In US20220074941A1, “HSP90 COMBINATION THERAPY” (Sloan-Kettering Institute for Cancer Research, priority 2011, published 2022):

Columns and labels:
[1] = tested on: Hsp90 complexes in K562 cell extract; assay: Nano-LC-MS/MS of PU-beads pull-downs; assay type: binding; conditions: protein identified in PU-beads pull-down of K562 cell extract, QSTAR-Elite QTof MS
Method in brief: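 Proteins were identified by data-dependent nano LC-MS/MS (QTof, ESI) and Mascot searching (p<0.05), then reported as spectral counts and coverage via Scaffold. Inputs were PU-bead versus control-bead pull-downs from lysate pre-cleared with control beads overnight at 4 °C, eluted by boiling in 2% SDS.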

[2] = tested on: Hsp90 complexes in Mia-PaCa-2 cell extract; assay: Nano-LC-MS/MS of PU-beads pull-downs; assay type: binding, human; conditions: protein identified in PU-beads pull-down of Mia-PaCa-2 cell extract; QSTAR-Elite QTof MS
Method in brief: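 They came from PU-bead pull-downs of pre-cleared lysates (control beads, overnight, 4 °C), eluted by boiling in 2% SDS, gel-separated and run by data-dependent nano-ESI QTof MS/MS.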

Molecule	Number of Assigned Spectra, K562 Prep 1 [1]	Number of Assigned Spectra, K562 Prep 2 [1]	Number of Assigned Spectra, Mia-Paca 2 [2]
PRPF3 (protein, UniProt O43395 1-683, looked up) U4/U6 small nuclear …: MALSKRELDELKPWIEKTVKRVLGFSEPTVVTAALNCVGKGMDKKKAADHLKPFLDDSTLRFVDKLFEAVEEGRSSRHSKSSSDRSRKRELKEVFGDDSEISKESSGVKKRRIPRFEEVEEEPEVIPGPPSESPGMLTKLQIKQMMEAATRQIEERKKQLSFISPPTPQPKTPSSSQPERLPIGNTIQPSQAATFMNDAIEKARKAAELQARIQAQLALKPGLIGNANMVGLANLHAMGIAPPKVELKDQTKPTPLILDEQGRTVDATGKEIELTHRMPTLKANIRAVKREQFKQQLKEKPSEDMESNTFFDPRVSIAPSQRQRRTFKFHDKGKFEKIAQRLRTKAQLEKLQAEISQAARKTGIHTSTRLALIAPKKELKEGDIPEIEWWDSYIIPNGFDLTEENPKREDYFGITNLVEHPAQLNPPVDNDTPVTLGVYLTKKEQKKLRRQTRREAQKELQEKVRLGLMPPPEPKVRISNLMRVLGTEAVQDPTKVEAHVRAQMAKRQKAHEEANAARKLTAEQRKVKKIKKLKEDISQGVHISVYRVRNLSNPAKKFKIEANAGQLYLTGVVVLHKDVNVVVVEGGPKAQKKFKRLMLHRIKWDEQTSNTKGDDDEESDEEAVKKTNKCVLVWEGTAKDRSFGEMKFKQCPTENMAREHFKKHGAEHYWDLALSESVLESTD	3	0	0
LRRC40 (protein, UniProt Q9H9A6 1-602, looked up) Leucine-rich …: MSRLKRIAGQDLRAGFKAGGRDCGTSVPQGLLKAARKSGQLNLSGRNLSEVPQCVWRINVDIPEEANQNLSFGATERWWEQTDLTKLIISNNKLQSLTDDLRLLPALTVLDIHDNQLTSLPSAIRELENLQKLNVSHNKLKILPEEITNLRNLKCLYLQHNELTCISEGFEQLSNLEDLDLSNNHLTTVPASFSSLSSLVRLNLSSNELKSLPAEINRMKRLKHLDCNSNLLETIPPELAGMESLELLYLRRNKLRFLPEFPSCSLLKELHVGENQIEMLEAEHLKHLNSILVLDLRDNKLKSVPDEIILLRSLERLDLSNNDISSLPYSLGNLHLKFLALEGNPLRTIRREIISKGTQEVLKYLRSKIKDDGPSQSESATETAMTLPSESRVNIHAIITLKILDYSDKQATLIPDEVFDAVKSNIVTSINFSKNQLCEIPKRMVELKEMVSDVDLSFNKLSFISLELCVLQKLTFLDLRNNFLNSLPEEMESLVRLQTINLSFNRFKMLPEVLYRIFTLETILISNNQVGSVDPQKMKMMENLTTLDLQNNDLLQIPPELGNCVNLRTLLLDGNPFRVPRAAILMKGTAAILEYLRDRIPT	4	3	0
VAC14 (protein, UniProt Q08AM6 1-782, looked up) Protein VAC14 homolog: MNPEKDFAPLTPNIVRALNDKLYEKRKVAALEIEKLVREFVAQNNTVQIKHVIQTLSQEFALSQHPHSRKGGLIGLAACSIALGKDSGLYLKELIEPVLTCFNDADSRLRYYACEALYNIVKVARGAVLPHFNVLFDGLSKLAADPDPNVKSGSELLDRLLKDIVTESNKFDLVSFIPLLRERIYSNNQYARQFIISWILVLESVPDINLLDYLPEILDGLFQILGDNGKEIRKMCEVVLGEFLKEIKKNPSSVKFAEMANILVIHCQTTDDLIQLTAMCWMREFIQLAGRVMLPYSSGILTAVLPCLAYDDRKKSIKEVANVCNQSLMKLVTPEDDELDELRPGQRQAEPTPDDALPKQEGTASGGPDGSCDSSFSSGISVFTAASTERAPVTLHLDGIVQVLNCHLSDTAIGMMTRIAVLKWLYHLYIKTPRKMFRHTDSLFPILLQTLSDESDEVILKDLEVLAEIASSPAGQTDDPGPLDGPDLQASHSELQVPTPGRAGLLNTSGTKGLECSPSTPTMNSYFYKFMINLLKRFSSERKLLEVRGPFIIRQLCLLLNAENIFHSMADILLREEDLKFASTMVHALNTILLTSTELFQLRNQLKDLKTLESQNLFCCLYRSWCHNPVTTVSLCFLTQNYRHAYDLIQKFGDLEVTVDFLAEVDKLVQLIECPIFTYLRLQLLDVKNNPYLIKALYGLLMLLPQSSAFQLLSHRLQCVPNPELLQTEDSLKAAPKSQKADSPSIDYAELLQHFEKVQNKHLEVRHQRSGRGDHLDRRVVL	5	2	0
NOP2 (protein, UniProt P46087 1-812, looked up) 28S rRNA …: MGRKLDPTKEKRGPGRKARKQKGAETELVRFLPAVSDENSKRLSSRARKRAAKRRLGSVEAPKTNKSPEAKPLPGKLPKGISAGAVQTAGKKGPQSLFNAPRGKKRPAPGSDEEEEEEDSEEDGMVNHGDLWGSEDDADTVDDYGADSNSEDEEEGEALLPIERAARKQKAREAAAGIQWSEEETEDEEEEKEVTPESGPPKVEEADGGLQINVDEEPFVLPPAGEMEQDAQAPDLQRVHKRIQDIVGILRDFGAQREEGRSRSEYLNRLKKDLAIYYSYGDFLLGKLMDLFPLSELVEFLEANEVPRPVTLRTNTLKTRRRDLAQALINRGVNLDPLGKWSKTGLVVYDSSVPIGATPEYLAGHYMLQGASSMLPVMALAPQEHERILDMCCAPGGKTSYMAQLMKNTGVILANDANAERLKSVVGNLHRLGVTNTIISHYDGRQFPKVVGGFDRVLLDAPCSGTGVISKDPAVKTNKDEKDILRCAHLQKELLLSAIDSVNATSKTGGYLVYCTCSITVEENEWVVDYALKKRNVRLVPTGLDFGQEGFTRFRERRFHPSLRSTRRFYPHTHNMDGFFIAKFKKFSNSIPQSQTGNSETATPTNVDLPQVIPKSENSSQPAKKAKGAAKTKQQLQKQQHPKKASFQKLNGISKGADSELSTVPSVTKTQASSSFQDSSQPAGKAEGIREPKVTGKLKQRSPKLQSSKKVAFLRQNAPPKGTDTQTPAVLSPSKTQATLKPKDHHQPLGRAKGVEKQQLPEQPFEKAAFQKQNDTPKGPQPPTVSPIRSSRPPPAKRKKSQSRGNSQLLLS	0	0	7
NOB1 (protein, UniProt Q9ULX3 2-412, looked up) RNA-binding protein NOB1: APVEHVVADAGAFLRHAALQDIGKNIYTIREVVTEIRDKATRRRLAVLPYELRFKEPLPEYVRLVTEFSKKTGDYPSLSATDIQVLALTYQLEAEFVGVSHLKQEPQKVKVSSSIQHPETPLHISGFHLPYKPKPPQETEKGHSACEPENLEFSSFMFWRNPLPNIDHELQELLIDRGEDVPSEEEEEEENGFEDRKDDSDDDGGGWITPSNIKQIQQELEQCDVPEDVRVGCLTTDFAMQNVLLQMGLHVLAVNGMLIREARSYILRCHGCFKTTSDMSRVFCSHCGNKTLKKVSVTVSDDGTLHMHFSRNPKVLNPRGLRYSLPTPKGGKYAINPHLTEDQRFPQLRLSQKARQKTNVFAPDYIAGVSPFVENDISSRSATLQVRDSTLGAGRRRLNPNASRKKFVKKR	5	0	0
SARM1 (protein, UniProt Q6SZW1 28-724, looked up) NAD(+) hydrolase SARM1: LAVPGPDGGGGTGPWWAAGGRGPREVSPGAGTEVQDALERALPELQQALSALKQAGGARAVGAGLAEVFQLVEEAWLLPAVGREVAQGLCDAIRLDGGLDLLLRLLQAPELETRVQAARLLEQILVAENRDRVARIGLGVILNLAKEREPVELARSVAGILEHMFKHSEETCQRLVAAGGLDAVLYWCRRTDPALLRHCALALGNCALHGGQAVQRRMVEKRAAEWLFPLAFSKEDELLRLHACLAVAVLATNKEVEREVERSGTLALVEPLVASLDPGRFARCLVDASDTSQGRGPDDLQRLVPLLDSNRLEAQCIGAFYLCAEAAIKSLQGKTKVFSDIGAIQSLKRLVSYSTNGTKSALAKRALRLLGEEVPRPILPSVPSWKEAEVQTWLQQIGFSKYCESFREQQVDGDLLLRLTEEELQTDLGMKSGITRKRFFRELTELKTFANYSTCDRSNLADWLGSLDPRFRQYTYGLVSCGLDRSLLHRVSEQQLLEDCGIHLGVHRARILTAAREMLHSPLPCTGGKPSGDTPDVFISYRRNSGSQLASLLKVHLQLHGFSVFIDVEKLEAGKFEDKLIQSVMGARNFVLVLSPGALDKCMQDHDCKDWVHKEIVTALSCGKNIVPIIDGFEWPEPQVLPEDMQAVLTFNGIKWSHEYQEATIEKIIRFLQGRSSRDSSAGSDTSLEGAAPMGPT	0	0	5
FTSJD2 (protein, UniProt Q8N1G2 1-835, looked up) Cap-specific mRNA …: MKRRTDPECTAPIKKQKKRVAELALSLSSTSDDEPPSSVSHGAKASTTSLSGSDSETEGKQHSSDSFDDAFKADSLVEGTSSRYSMYNSVSQKLMAKMGFREGEGLGKYSQGRKDIVEASSQKGRRGLGLTLRGFDQELNVDWRDEPEPSACEQVSWFPECTTEIPDTQEMSDWMVVGKRKMIIEDETEFCGEELLHSVLQCKSVFDVLDGEEMRRARTRANPYEMIRGVFFLNRAAMKMANMDFVFDRMFTNPRDSYGKPLVKDREAELLYFADVCAGPGGFSEYVLWRKKWHAKGFGMTLKGPNDFKLEDFYSASSELFEPYYGEGGIDGDGDITRPENISAFRNFVLDNTDRKGVHFLMADGGFSVEGQENLQEILSKQLLLCQFLMALSIVRTGGHFICKTFDLFTPFSVGLVYLLYCCFERVCLFKPITSRPANSERYVVCKGLKVGIDDVRDYLFAVNIKLNQLRNTDSDVNLVVPLEVIKGDHEFTDYMIRSNESHCSLQIKALAKIHAFVQDTTLSEPRQAEIRKECLRLWGIPDQARVAPSSSDPKSKFFELIQGTEIDIFSYKPTLLTSKTLEKIRPVFDYRCMVSGSEQKFLIGLGKSQIYTWDGRQSDRWIKLDLKTELPRDTLLSVEIVHELKGEGKAQRKISAIHILDVLVLNGTDVREQHFNQRIQLAEKFVKAVSKPSRPDMNPIRVKEVYRLEEMEKIFVRLEMKIIKGSSGTPKLSYTGRDDRHFVPMGLYIVRTVNEPWTMGFSKSFKKKFFYNKKTKDSTFDLPADSIAPFHICYYGRLFWEWGDGIRVHDSQKPQDQDKLSKEDVLSFIQMHRA	3	1	0
